Test [1] addresses T1, GST-hMYH (full-length, amino acids 1-547) (human, UniProt Q9UIF7-1 1-546).
T1 construct: human MutY glycosylase homolog (hMYH), NM_012222; printed as full-length, amino acids 1-547; cloned into pGEX-4T1; also called GST-tagged hMYH wild type; source: bacterially expressed and purified
T1 sequence (looked up): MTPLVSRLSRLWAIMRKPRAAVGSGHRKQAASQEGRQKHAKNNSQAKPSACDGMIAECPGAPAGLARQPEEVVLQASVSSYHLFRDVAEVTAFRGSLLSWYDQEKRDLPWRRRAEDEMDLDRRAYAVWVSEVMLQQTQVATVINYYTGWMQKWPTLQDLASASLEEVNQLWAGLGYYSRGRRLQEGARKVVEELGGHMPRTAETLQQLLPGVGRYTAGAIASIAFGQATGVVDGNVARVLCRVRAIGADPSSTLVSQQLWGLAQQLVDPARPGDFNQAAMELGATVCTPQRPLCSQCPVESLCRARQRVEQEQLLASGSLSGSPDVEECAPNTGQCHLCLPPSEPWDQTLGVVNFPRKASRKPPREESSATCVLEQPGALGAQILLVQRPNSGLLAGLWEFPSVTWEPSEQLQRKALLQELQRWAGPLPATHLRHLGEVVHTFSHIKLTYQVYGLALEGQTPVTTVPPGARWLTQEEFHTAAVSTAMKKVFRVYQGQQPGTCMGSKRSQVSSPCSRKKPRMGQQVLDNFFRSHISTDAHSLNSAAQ
Nature of the test: pull-down; GST or GST-hMYH fusion on glutathione-Sepharose 4B beads, purified His-hRad9 added; 50 mM Tris-HCl pH 7.5, 150 mM NaCl, 1 mM EDTA, 0.3 mM DTT, 0.1% NP-40; 3 h at 4°C; blot with anti-GST and anti-His. Particulars: both partners purified.

Test [2] addresses T2, GST-hMYH-ΔC (amino acids 1-487) (human, UniProt Q9UIF7-1 1-487).
T2 construct: cloned into pGEX-4T1; source: bacterially expressed and purified
T2 sequence (looked up): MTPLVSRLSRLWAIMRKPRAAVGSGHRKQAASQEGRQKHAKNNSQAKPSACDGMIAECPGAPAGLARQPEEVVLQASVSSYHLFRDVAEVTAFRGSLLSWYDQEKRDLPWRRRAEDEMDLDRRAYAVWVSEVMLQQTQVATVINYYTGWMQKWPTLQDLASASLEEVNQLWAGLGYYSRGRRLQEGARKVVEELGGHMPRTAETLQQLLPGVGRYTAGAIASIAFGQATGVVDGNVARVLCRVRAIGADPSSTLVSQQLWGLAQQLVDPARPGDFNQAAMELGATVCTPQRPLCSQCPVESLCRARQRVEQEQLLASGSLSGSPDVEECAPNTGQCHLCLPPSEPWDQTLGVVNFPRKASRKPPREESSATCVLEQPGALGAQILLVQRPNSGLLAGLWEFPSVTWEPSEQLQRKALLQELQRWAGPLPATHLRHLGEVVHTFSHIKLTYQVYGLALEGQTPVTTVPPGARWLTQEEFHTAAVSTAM
The description is as above. Particulars: both partners purified.

This is an account of results in publication PMC4151078, “Visualization of the physical and functional interaction between hMYH and hRad9 by Dronpa bimolecular fluorescence complementation” (BMC Molecular Biology, 2014).

B1: His-hRad9 (natural protein, human, UniProt Q99638 1-391, looked up)
chain: MKCLVTGGNVKVLGKAVHSLSRIGDELYLEPLEDGLSLRTVNSSRSAYACFLFAPLFFQQYQAATPGQDLLRCKILMKSFLSVFRSLAMLEKTVEKCCISLNGRSSRLVVQLHCKFGVRKTHNLSFQDCESLQAVFDPASCPHMLRAPARVLGEAVLPFSPALAEVTLGIGRGRRVILRSYHEEEADSTAKAMVTEMCLGEEDFQQLQAQEGVAITFCLKEFRGLLSFAESANLNLSIHFDAPGRPAIFTIKDSLLDGHFVLATLSDTDSHSQDLGSPERHQPVPQLQAHSTPHPDDFANDDIDSYMIAMETTIGNEGSRVLPSISLSPGPQPPKSPGPHSEEEDEAEPSTVPGTPPPKKFRSLFFGSILAPVRSPQGPSPVLAEDSEGEG
notes: human Rad9 (hRad9), NM_004584; also called purified His-hRad9; His-purified hRad9 protein; source: bacterially expressed and purified
With B1, the binding result in test [1] and in test [2] was “binds” throughout.
